For series [1], the target named is T1, DisA (Bacillus subtilis, UniProt P37573).
T1 construct: full length, expressed in E. coli BL21(DE3) pLysS; octamer; C-terminal His tag in the pull-down variant
T1 sequence (P37573 1-360): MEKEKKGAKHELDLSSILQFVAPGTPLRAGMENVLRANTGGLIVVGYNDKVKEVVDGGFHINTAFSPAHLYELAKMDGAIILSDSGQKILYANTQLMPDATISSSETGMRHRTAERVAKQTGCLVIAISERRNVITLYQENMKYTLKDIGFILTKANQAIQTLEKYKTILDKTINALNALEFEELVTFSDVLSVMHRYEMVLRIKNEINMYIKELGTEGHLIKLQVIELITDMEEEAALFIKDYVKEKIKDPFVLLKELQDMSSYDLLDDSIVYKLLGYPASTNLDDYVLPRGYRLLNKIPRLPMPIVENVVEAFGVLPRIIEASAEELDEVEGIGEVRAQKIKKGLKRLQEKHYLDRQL
The series is described as follows: TLC of conversion to c-di-AMP. The class given is biochemical. The settings on record: 10 mM MgCl2, 100 µM ATP, pH 7.5, 37 °C, no DNA; labelled compound.

Series [2] concerns the target T2, DisA (Bacillus subtilis, UniProt P37573 1-360).
T2 sequence: T1 sequence (P37573 1-360)
The series is described as follows: EMSA; 5 mM ATPgS; 37 C; 0.2% glutaraldehyde before loading; apparent Kd; complexes retained in well; EMSA: 0.1 nM HJ-J3 in buffer B (composition not in material) with 5 mM ATPgS, 15 min, 37 C, 0.2% glutaraldehyde before 6% PAGE in TAE; DNase I: buffer C 50 mM Tris-HCl pH 7.5, 1 mM DTT, 50 mM NaCl, 10 mM MgCl2, 0.05 mg/mL BSA, 5% glycerol, 5 mM ATPgS, 37 C. The settings on record: protein: recombinant; chain copies: 8; label: 32P (gamma-32P, 5' end of one strand); four-way Holliday junction of 4 strands, 1 copy each, heterologous arms. For orientation: Mobility shift assays separate free from complexed probe on a gel.

For the next series, the target named is T3, RecG (Bacillus subtilis, UniProt O34942 1-682).
T3 sequence: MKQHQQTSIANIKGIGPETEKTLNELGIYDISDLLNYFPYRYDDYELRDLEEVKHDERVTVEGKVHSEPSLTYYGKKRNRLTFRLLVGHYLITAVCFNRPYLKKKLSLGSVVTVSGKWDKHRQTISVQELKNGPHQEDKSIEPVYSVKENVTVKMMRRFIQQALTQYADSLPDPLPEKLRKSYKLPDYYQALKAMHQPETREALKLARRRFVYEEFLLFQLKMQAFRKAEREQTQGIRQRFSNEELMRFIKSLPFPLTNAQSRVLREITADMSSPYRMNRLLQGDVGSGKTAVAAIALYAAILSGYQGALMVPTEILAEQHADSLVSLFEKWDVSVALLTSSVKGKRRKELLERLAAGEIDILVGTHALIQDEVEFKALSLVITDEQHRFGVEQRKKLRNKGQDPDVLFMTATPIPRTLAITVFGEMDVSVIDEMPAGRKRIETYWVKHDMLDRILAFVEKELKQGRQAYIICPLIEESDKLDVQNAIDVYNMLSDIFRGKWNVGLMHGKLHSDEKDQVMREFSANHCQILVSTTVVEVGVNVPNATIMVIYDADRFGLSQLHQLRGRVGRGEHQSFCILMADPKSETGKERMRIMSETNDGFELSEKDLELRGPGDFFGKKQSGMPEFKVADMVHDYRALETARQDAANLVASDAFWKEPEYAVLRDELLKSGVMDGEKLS
Nature of the series: EMSA; 5 mM ATPgS; 37 C; 0.2% glutaraldehyde before loading; apparent Kd; G-I and minor G-II complexes; EMSA: 0.1 nM HJ-J3 in buffer B (composition not in material) with 5 mM ATPgS, 15 min, 37 C, 0.2% glutaraldehyde before 6% PAGE in TAE; DNase I: buffer C 50 mM Tris-HCl pH 7.5, 1 mM DTT, 50 mM NaCl, 10 mM MgCl2, 0.05 mg/mL BSA, 5% glycerol, 5 mM ATPgS, 37 C. The settings on record: protein: recombinant; label: 32P (gamma-32P, 5' end of one strand); four-way Holliday junction of 4 strands, 1 copy each, heterologous arms.

In another series the target is T4, DisA;RecG (Bacillus subtilis;Bacillus subtilis, UniProt P37573;O34942 1-360;1-682, |).
T4 sequence 1: T1 sequence (P37573 1-360)
T4 sequence 2: T3 sequence
Nature of the series: DNase I footprinting; 5 mM ATPgS, 10 mM Mg2+; 60 nM RecG with increasing DisA; shorter protection on both sides of junction; ternary complex proposed; EMSA: 0.1 nM HJ-J3 in buffer B (composition not in material) with 5 mM ATPgS, 15 min, 37 C, 0.2% glutaraldehyde before 6% PAGE in TAE; DNase I: buffer C 50 mM Tris-HCl pH 7.5, 1 mM DTT, 50 mM NaCl, 10 mM MgCl2, 0.05 mg/mL BSA, 5% glycerol, 5 mM ATPgS, 37 C. The settings on record: protein: recombinant;recombinant; tags: ;; chain copies: 8;1; label: 32P (gamma-32P, 5' end of one strand); four-way Holliday junction of 4 strands, 1 copy each, heterologous arms.

Another series deals with T5, His-tagged DisA (B. subtilis, UniProt P37573 1-360).
T5 sequence (looked up): T1 sequence (P37573 1-360)
The series is described as follows: cell-based or functional assay.

Regarding `Nc1ncnc2c1ncn2[C@@H]1O[C@@H]2COP(=O)(O)O[C@H]3[C@@H](O)[C@H](n4cnc5c(N)ncnc54)O[C@@H]3COP(=O)(O)O[C@H]2[C@H]1O` [c-di-AMP], the “TLC of [α^32P]-ATP conversion to c-di-AMP” value on DisA [1] is reported as “it efficiently converted two ATP molecules into c-di-AMP”.

B1: HJ-J3 DNA (fixed Holliday junction) (structured_DNA)
DNA 1: CGCAAGCGACAGGAACCTCGAGAAGCTTCCGGTAGCAGCCTGAGCGGTGGTTGAATTCCTCGAGGTTCCTGTCGCTTGCG
DNA 2: CGCAAGCGACAGGAACCTCGAGGAATTCAACCACCGCTCAACTCAACTGCAGTCTAGACTCGAGGTTCCTGTCGCTTGCG
DNA 3: CGCAAGCGACAGGAACCTCGAGTCTAGACTGCAGTTGAGTCCTTGCTAGGACGGATCCCTCGAGGTTCCTGTCGCTTGCG
DNA 4: CGCAAGCGACAGGAACCTCGAGGGATCCGTCCTAGCAAGGGGCTGCTACCGGAAGCTTCTCGAGGTTCCTGTCGCTTGCG
Take B1: the Kd with DisA [2] amounted to 17 ± 1 nM; with RecG, 4 ± 0.3 nM. In the series with DisA;RecG, the binding result is recorded as “binds”.

B2: native RecG (natural protein, B. subtilis, UniProt O34942 1-682, looked up)
chain: T3 sequence
As to B2, the “inhibition of the DAC activity (c-di-AMP synthesis) of DisA (25 nM) with HJ-J3 DNA (125 nM) and 100 µM ATP, RecG 7 to 30 nM” value in the series with His-tagged DisA was about 11 fold.

Source of the values: PMC8227628, “DisA Limits RecG Activities at Stalled or Reversed Replication Forks” (Cells, 2021).
